The supplement of paper PMC9876800

System: peptide library, one residue held at a place counted from the S/T acceptor
Assay: relative phosphorylation of the sub-library (ratio to the mean residue at this position); higher = residue favoured
Conditions: human
Summary of the method: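 Relative sub-library phosphorylation is the ratio of each sub-library's signal to the mean residue at that position. The signal came from phosphorimaging of spots on streptavidin membranes, quantified by densitometry, after purified recombinant kinases reacted with biotinylated degenerate peptide sub-libraries in 384-well plates. Reactions held 50 μM peptide and 50 μM ATP spiked with γ-32P-ATP for 90 min under kinase-specific conditions.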

MAP4K2, construct: Full length, sequence (Q12851 whole entry, looked up): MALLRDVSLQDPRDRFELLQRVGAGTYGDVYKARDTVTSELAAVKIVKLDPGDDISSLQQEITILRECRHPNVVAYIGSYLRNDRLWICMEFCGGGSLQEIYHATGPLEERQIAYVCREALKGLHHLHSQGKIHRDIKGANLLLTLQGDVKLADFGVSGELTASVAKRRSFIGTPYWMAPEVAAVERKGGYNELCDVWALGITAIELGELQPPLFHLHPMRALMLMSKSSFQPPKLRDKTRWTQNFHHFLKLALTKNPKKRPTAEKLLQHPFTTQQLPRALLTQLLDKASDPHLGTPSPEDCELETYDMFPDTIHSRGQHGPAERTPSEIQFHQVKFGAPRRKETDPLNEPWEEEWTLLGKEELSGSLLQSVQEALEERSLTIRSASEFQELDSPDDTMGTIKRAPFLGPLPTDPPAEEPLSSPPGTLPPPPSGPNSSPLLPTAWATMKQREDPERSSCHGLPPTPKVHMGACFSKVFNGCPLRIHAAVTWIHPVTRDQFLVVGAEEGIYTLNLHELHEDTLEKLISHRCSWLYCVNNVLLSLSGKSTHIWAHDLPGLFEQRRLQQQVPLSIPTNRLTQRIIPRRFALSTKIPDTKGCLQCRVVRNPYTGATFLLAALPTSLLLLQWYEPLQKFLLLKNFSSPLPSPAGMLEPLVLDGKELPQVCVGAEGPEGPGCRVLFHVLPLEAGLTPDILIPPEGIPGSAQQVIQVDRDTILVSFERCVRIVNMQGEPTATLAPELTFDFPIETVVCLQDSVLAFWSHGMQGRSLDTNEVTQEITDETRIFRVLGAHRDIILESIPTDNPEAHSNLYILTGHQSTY

MAP4K2, construct: Full length (from UniProt Q12851)
relative phosphorylation
Conditions | at +1 | at +2 | at +3 | at +4 | at -1 | at -2 | at -3 | at -4 | at -5
A fixed | 0.468 | 0.739 | 0.703 | 0.786 | 0.858 | 1.1 | 0.767 | 0.881 | 0.946
D fixed | 0.266 | 0.979 | 0.592 | 0.804 | 0.927 | 0.912 | 0.852 | 1.09 | 1.01
E fixed | 0.259 | 0.759 | 0.52 | 0.815 | 0.595 | 0.575 | 0.769 | 1.03 | 0.889
F fixed | 1.07 | 0.58 | 0.762 | 0.866 | 0.722 | 1.27 | 0.852 | 1.09 | 1.12
G fixed | 0.742 | 0.986 | 0.999 | 1.07 | 1.61 | 1.19 | 1.45 | 1.37 | 1.26
H fixed | 0.576 | 1.03 | 1.1 | 1.06 | 1.17 | 1.29 | 1.09 | 0.999 | 1.07
I fixed | 1.6 | 0.396 | 0.506 | 0.662 | 0.251 | 0.574 | 0.457 | 0.596 | 0.629
K fixed | 0.519 | 2.31 | 2.03 | 1.65 | 1.48 | 0.754 | 1.69 | 1.05 | 1.18
L fixed | 3.02 | 0.649 | 0.694 | 0.82 | 0.868 | 0.634 | 0.558 | 0.688 | 0.662
M fixed | 3.03 | 0.78 | 0.773 | 0.938 | 1.03 | 0.778 | 0.706 | 0.852 | 0.858
N fixed | 0.852 | 1.24 | 1.26 | 1.2 | 1.88 | 1.14 | 1.28 | 0.955 | 0.971
P fixed | 0.398 | 1.21 | 1.29 | 1.03 | 0.954 | 1.09 | 1.3 | 1.38 | 1.12
Q fixed | 0.581 | 1.11 | 0.996 | 1.22 | 1.09 | 0.908 | 1.05 | 0.921 | 0.834
R fixed | 0.55 | 2.4 | 2.41 | 1.41 | 1.43 | 1.01 | 1.51 | 1.12 | 1.24
V fixed | 0.749 | 0.486 | 0.583 | 0.665 | 0.311 | 0.66 | 0.438 | 0.596 | 0.765
W fixed | 1.43 | 0.652 | 1 | 1.15 | 0.765 | 1.38 | 1.19 | 1.29 | 1.28
Y fixed | 0.892 | 0.689 | 0.783 | 0.866 | 1.05 | 1.75 | 1.04 | 1.1 | 1.16
pThr fixed | 1.48 | 1.36 | 1.3 | 0.836 | 0.698 | 1.24 | 1.13 | 1.2 | 1.27
pTyr fixed | 0.518 | 0.636 | 0.953 | 0.756 | 0.759 | 0.98 | 1.08 | 1.11 | 1.15
